Assay [1] addresses T1, Recombinant Fc-extracellular domain fusion of human Jagged-2 (Homo sapiens, UniProt Q9Y219). The assay is described as follows: ELISA. For orientation: ELISA stands for enzyme-linked immunosorbent assay.
For assay [2], the target named is T1, Recombinant Fc-extracellular domain …. The assay is described as follows: ELISA. This is another data set of the same source.

T1 sequence (Q9Y219 27-1080): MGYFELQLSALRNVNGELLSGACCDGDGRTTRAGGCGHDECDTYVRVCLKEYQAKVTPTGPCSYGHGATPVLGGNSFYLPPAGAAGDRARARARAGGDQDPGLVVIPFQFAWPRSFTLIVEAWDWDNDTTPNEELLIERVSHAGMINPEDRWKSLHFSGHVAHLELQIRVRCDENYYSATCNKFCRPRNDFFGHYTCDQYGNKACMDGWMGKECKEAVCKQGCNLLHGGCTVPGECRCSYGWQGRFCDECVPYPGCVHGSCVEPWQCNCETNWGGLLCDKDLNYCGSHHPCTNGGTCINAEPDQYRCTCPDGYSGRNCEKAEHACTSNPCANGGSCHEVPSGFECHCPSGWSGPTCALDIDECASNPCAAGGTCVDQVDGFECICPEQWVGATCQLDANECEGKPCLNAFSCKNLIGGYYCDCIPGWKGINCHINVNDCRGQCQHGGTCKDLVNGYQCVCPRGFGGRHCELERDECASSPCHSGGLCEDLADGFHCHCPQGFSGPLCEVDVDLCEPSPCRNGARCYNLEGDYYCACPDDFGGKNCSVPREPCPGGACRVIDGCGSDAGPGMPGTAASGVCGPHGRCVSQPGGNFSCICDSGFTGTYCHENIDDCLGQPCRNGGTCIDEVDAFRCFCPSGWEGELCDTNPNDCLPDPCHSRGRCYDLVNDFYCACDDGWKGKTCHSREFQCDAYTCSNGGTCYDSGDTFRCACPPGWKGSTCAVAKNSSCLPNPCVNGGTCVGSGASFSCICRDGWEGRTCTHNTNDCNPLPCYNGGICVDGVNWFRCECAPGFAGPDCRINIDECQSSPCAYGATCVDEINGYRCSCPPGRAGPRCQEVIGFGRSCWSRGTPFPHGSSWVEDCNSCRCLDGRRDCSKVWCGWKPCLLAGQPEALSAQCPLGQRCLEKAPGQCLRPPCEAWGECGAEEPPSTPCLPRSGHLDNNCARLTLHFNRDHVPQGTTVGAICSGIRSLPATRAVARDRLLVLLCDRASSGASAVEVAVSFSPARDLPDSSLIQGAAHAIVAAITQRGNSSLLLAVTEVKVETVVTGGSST

B1: Fab J2/F/R6 (purified) (Fab, V domains shown)
VH: EVQLVESGGGLVQPGGSLRLSCAASGFNLSYSSMHWVRQAPGKGLEWVAYISPSYGYTSYADSVKGRFTISADTSKNTAYLQMNSLRAEDTAVYYCARAHWSSYVSGGWAYPHHSGMDYWGQGTLVTVSS
VL: DIQMTQSPSSLSASVGDRVTITCRASQSVSSAVAWYQQKPGKAPKLLIYSASSLYSGVPSRFSGSRSGTDFTLTISSLQPEDFATYYCQQSYASVLITFGQGTKVEIK
For B1, the binding result in assay [1] is “binds”.

B2: Fab J2/F/R7 (purified) (Fab, V domains shown)
VH: EVQLVESGGGLVQPGGSLRLSCAASGFNIYSSSMHWVRQAPGKGLEWVAYISPSYSYTYYADSVKGRFTISADTSKNTAYLQMNSLRAEDTAVYYCARSYWYSHYAWWWASYSVVGIDYWGQGTLVTVSS
VL: DIQMTQSPSSLSASVGDRVTITCRASQSVSSAVAWYQQKPGKAPKLLIYSASSLYSGVPSRFSGSRSGTDFTLTISSLQPEDFATYYCQQYASYPITFGQGTKVEIK
Turning to B2, the EC50 (as a rule, the concentration at which the effect is half-maximal) in assay [2] is 24.6 nM.

B3: Fab J2/F/R4 (purified) (Fab, V domains shown)
VH: EVQLVESGGGLVQPGGSLRLSCAASGFNLYSSYIHWVRQAPGKGLEWVAYISPSYGYTYYADSVKGRFTISADTSKNTAYLQMNSLRAEDTAVYYCARYYYSGWAVYAGMDYWGQGTLVTVSS
VL: DIQMTQSPSSLSASVGDRVTITCRASQSVSSAVAWYQQKPGKAPKLLIYSASSLYSGVPSRFSGSRSGTDFTLTISSLQPEDFATYYCQQWHHPPAPITFGQGTKVEIK
On to B3, for which the binding result in assay [1] is “binds”.

These data come from PMC6511873 (Nucleic Acids Research, 2019).
